Laboratory results taken from FireProtDB (doi:10.1111/febs.12694).
Where “and” joins values, the source holds several entries; their conditions need not be identical. Identical values can stand only once.

B1: Bacteriorhodopsin, P02945 (parent)
chain: MLELLPTAVEGVSQAQITGRPEWIWLALGTALMGLGTLYFLVKGMGVSDPDAKKFYAITTLVPAIAFTMYLSMLLGYGLTMVPFGGEQNPIYWARYADWLFTTPLLLLDLALLVDADQGTILALVGADGIMIGTGLVGALTKVYSYRFVWWAISTAAMLYILYVLFFGFTSKAESMRPEVASTFKVLRNVTVVLWSAYPVVWLIGSEGAGIVPLNIETLLFMVLDVSAKVGFGLILLRSRAIFGEAEAPEPSAGDGAAATSD

Variants of: B1
Settings: Halobacterium salinarum (strain ATCC 700922 / JCM 11081 / NRC-1); pH 3.5; Thermal; DSC; structure 1C3W; whole UniProt chain shown

Variant | Tm [°C] | change of melting temperature, mutant - wild type (higher = more stable) [°C]
E22Q E207Q E217Q | 69.4 | -7.2

Same assay, conditions: Halobacterium salinarum (strain ATCC 700922 / JCM 11081 / NRC-1); pH 4; Thermal; UV spectroscopy; transition: 2; structure 1C3W; whole UniProt chain shown

Variant | Tm | change of melting temperature, mutant - wild type (higher = more stable) [°C]
E22Q E207Q E217Q | 60.1 °C and 64.1 °C | -5.1

Same assay, conditions: Halobacterium salinarum (strain ATCC 700922 / JCM 11081 / NRC-1); pH 7; Thermal; DSC; structure 1C3W; whole UniProt chain shown

Variant | Tm [°C] | change of melting temperature, mutant - wild type (higher = more stable) [°C]
E22Q E207Q E217Q | 93.3 | -4.9

Same assay, conditions: Halobacterium salinarum (strain ATCC 700922 / JCM 11081 / NRC-1); pH 7; Thermal; UV spectroscopy; transition: 2; structure 1C3W; whole UniProt chain shown

Variant | change of melting temperature, mutant - wild type (higher = more stable) [°C]
E22Q E207Q E217Q | -0.4

Same assay, conditions: Halobacterium salinarum (strain ATCC 700922 / JCM 11081 / NRC-1); pH 9; Thermal; DSC; structure 1C3W; whole UniProt chain shown

Variant | Tm [°C] | change of melting temperature, mutant - wild type (higher = more stable) [°C]
E22Q E207Q E217Q | 82.6 | -11.9

Same assay, conditions: Halobacterium salinarum (strain ATCC 700922 / JCM 11081 / NRC-1); pH 9.5; Thermal; UV spectroscopy; glycine buffer; transition: 2; structure 1C3W; whole UniProt chain shown

Variant | change of melting temperature, mutant - wild type (higher = more stable) [°C]
E22Q E207Q E217Q | 0
